Laboratory results published in patent US20110293558A1, “MATERIAL PROPERTIES OF T CELLS AND RELATED METHODS AND COMPOSITIONS” (Massachusetts Institute of Technology, priority 2010, published 2011).
“Also recorded” adds a separate entry of the source.

Assays:
[1] = system: Acute promyelocytic leukemia cells; details: differentiation down the neutrophil lineage for three days; cited from earlier work
WAS−/− T cells = assay: Micropipette aspiration of chemokine-stimulated T cells; assay type: cell-based, mouse; details: naïve WAS−/− T cells
Experimental: (§1) Micropipettes made using a micropipette puller were trimmed to 2.5-3 or 4.5-5 μm inner diameter for testing naïve and activated T cells. MPA glass chambers consisted of a 24 mm×60 mm microscope coverslip bottom, a U-shaped parafilm spacer, and a 22 mm×22 mm microscope coverslip top. The assembly was baked for two hours at 80° C. to ensure good adhesion between the components.
(§2) Enriched WT and WAS−/− T cells in DMEM with 1% BSA and 0.1% Pen/Strep were induced to migrate through polycarbonate Transwell inserts (Costar, Cambridge, Mass.) with 5-μm pores in a 24-well plate toward a CCL19 chemokine source (R&D Systems, Minneapolis, Minn.). Inserts contained 5×10^5 cells in 100 μL of medium, and wells contained 1 mL of medium with either no CCL19 or 100 ng/mL of CCL19. Cells were allowed to migrate for ˜7 hours at 37° C., and those that crossed the membrane were collected and used for MPA studies.
(§3) 3×10^5 cells in 100 μL RPMI with 10% FBS and 1% HEPES was stained with 10 μL trypan blue. The mixture was added to 600 μL of either the RPMI medium or the T cell activation medium with IL-2 for naïve and activated T cell testing. Migratory T cells were tested in the medium used for migration. The MPA device was based on the design of Hochmuth et al (18). The aspiration rate and volume were 36 mL/hr and 2 mL, corresponding to a total pressure of ˜400 Pa. The cell movement in the micropipette was recorded with a CCD camera. Aspirations were performed at approximately room temperature.
(§4) MPA data were fitting using the half-space model (77) described by the expressions:
(§5) where E is the cell modulus, L is the length from the micropipette opening to the cell leading edge, Δp is the pressure differential at a particular L, ri and ro are the inner and outer […] of the micropipette, and φ is the wall function that is approximately […]. The ImageJ software was used to manually track the change in L. By plotting Δp against ri/L and finding the best linear fit (minimal total error) a modulus could be derived from the slope of the line. […]

WT T cells = assay: as above; assay type: cell-based, mouse
Experimental: as §1, §2, §3, §4, §5

naïve WAS−/− T cells = assay: In vitro Transwell cell migration toward CCL19; assay type: cell-based, mouse
Experimental: (§6) Cells from the peripheral lymph nodes and the spleen of Balb/c mice and WAS−/− mice on Balb/c background were pooled and enriched using the EasySep Mouse CD8+ T Cell Enrichment Kit from STEMCELL Technologies (British Columbia, Canada). Enrichment was confirmed using fluorescence-activated cell sorting (FACS) by staining the cells with FITC/anti-Thy1.2 and PE/anti-CD8α antibodies (Abs). The memory T cell population was assessed by evaluating the expression of CD44 and CD62L via FACS. T cells in an activation medium with 100 units/mL IL-2 and 1% anti-CD28 Ab were activated by plate-bound anti-CD3 Abs for 4 day at 37° C. The activation medium included RPMI with 10% FBS, 10 mM HEPES (1M), 1% NEAA, 1% sodium pyruvate (100 mM), 50 μM β-mercaptoethanol, 4 mM L-glutamine, and 100 μg/mL Pen/Strep. Cell activation was verified via FACS measurement of CD25. Enriched WT and WAS−/− T cells in DMEM with 1% BSA and 0.1% Pen/Strep were induced to migrate through polycarbonate Transwell inserts (Costar, Cambridge, Mass.) with 5-μm pores in a 24-well plate toward a CCL19 chemokine source (R&D Systems, Minneapolis, Minn.). Inserts contained 5×10^5 cells in 100 μL of medium, and wells contained 1 mL of medium with either no CCL19 or 100 ng/mL of CCL19. Cells were allowed to migrate for ˜7 hours at 37° C., and those that crossed the membrane were collected and used for MPA studies.

naïve WT T cells = assay: In vitro Transwell cell migration toward CCL19; assay type: cell-based, mouse; details: after CCL19 exposure
Experimental: as §6

Row | Molecule | compliance of differentiated cells relative to control (more compliant) [1] | change in modulus before and after the chemokine treatment (Student's t test) (WAS−/− T cells) | stiffness compared to activated cells (WT T cells; migratory WT cells after CCL19) | change in modulus before and after the chemokine treatment (Student's t test) (WT T cells; naïve WT T cells) | cells with naïve phenotype (CD62L and CD44 co-staining), FACS (naïve WAS−/− T cells; all three groups (untreated, remained in insert, migrated)) | cells migrated (naïve WAS−/− T cells; seven hours exposure to CCL19, 100 ng/mL, 5-μm pore inserts) | migrating cells stained CD62L high and CD44 low (naïve phenotype), FACS (naïve WT T cells)
1 | CC1=C(/C=C/C(C)=C/C=C/C(C)=C/C(=O)O)C(C)(C)CCC1 [all-trans retinoic acid] | 45% | – | – | – | – | – | –
2 | CCL19: chemokine CCL19 (R&D Systems) used as chemoattractant for T cells (protein, UniProt Q99731 22-98, looked up) C-C motif chemokine 19: GTNDAEDCCLSVTQKPIPGYIVRNFHYLLIKDGCRVPAVVFTTLRGRQLCAPPDQPWVERIIQRLQRTSAKMKRRSS | – | did not pass the 95% significance level; also recorded: insignificant decrease | about 1.4 times | significantly different | ~90% | ~6.4% | ~90%
